# Source: paper PMC10786891, “Massively parallel profiling of RNA-targeting CRISPR-Cas13d”
# Substitutions are numbered along the chain they refer to. Names and notes keep the numbering of the source.
# T1: EsCas13d, nuclease-dead (Eubacterium siraeum, UniProt B0MS50, R295A;H300A;R849A;H854A)
# T1 sequence: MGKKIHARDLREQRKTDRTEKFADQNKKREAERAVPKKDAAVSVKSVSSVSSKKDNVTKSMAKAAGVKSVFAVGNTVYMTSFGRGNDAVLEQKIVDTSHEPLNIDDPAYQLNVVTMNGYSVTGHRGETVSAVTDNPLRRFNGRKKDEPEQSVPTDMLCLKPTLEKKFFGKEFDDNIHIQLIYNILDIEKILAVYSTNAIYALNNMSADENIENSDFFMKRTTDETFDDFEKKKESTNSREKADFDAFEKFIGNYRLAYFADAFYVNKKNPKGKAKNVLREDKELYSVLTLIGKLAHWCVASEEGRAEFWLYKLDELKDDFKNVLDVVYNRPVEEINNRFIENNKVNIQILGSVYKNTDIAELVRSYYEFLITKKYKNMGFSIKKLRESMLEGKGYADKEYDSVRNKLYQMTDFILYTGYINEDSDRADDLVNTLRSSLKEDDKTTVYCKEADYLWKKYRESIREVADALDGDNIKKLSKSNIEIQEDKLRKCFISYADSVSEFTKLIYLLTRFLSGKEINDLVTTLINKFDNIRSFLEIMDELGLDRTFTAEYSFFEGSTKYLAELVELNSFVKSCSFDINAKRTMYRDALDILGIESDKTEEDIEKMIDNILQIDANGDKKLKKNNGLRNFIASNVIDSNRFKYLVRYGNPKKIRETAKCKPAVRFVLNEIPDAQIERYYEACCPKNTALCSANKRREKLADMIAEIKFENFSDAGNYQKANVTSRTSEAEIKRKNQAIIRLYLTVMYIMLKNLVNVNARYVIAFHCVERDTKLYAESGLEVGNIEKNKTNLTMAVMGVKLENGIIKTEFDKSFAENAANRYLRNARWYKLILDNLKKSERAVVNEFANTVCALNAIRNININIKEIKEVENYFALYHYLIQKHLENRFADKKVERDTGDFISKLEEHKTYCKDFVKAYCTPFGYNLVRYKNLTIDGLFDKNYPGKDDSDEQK
# B1: target 3 U7A,A18G (mixed)
# RNA 1: CACCCGUGCAAAAUUGCAGGGGUCUAAAACGACCUGAAUAUUUCAGAUCAAA
# RNA 2: GGGAAUGGAUCCACAUCUACGAAUUCGUUUUUGGUCUGAAAUAUACAGGUCUGCAGAUCGGAAGAGCACACGU
# B2: target 3 U2G,G4A (mixed)
# RNA 1: B1 RNA 1
# RNA 2: B1 RNA 2 with G34A, A45U, G48A, U50G
# B3: target 3 C1U,U2C (mixed)
# RNA 1: B1 RNA 1
# RNA 2: B1 RNA 2 with G34A, A45U, U50C, C51U
# B4: target 3 G3C,A9G (mixed)
# RNA 1: B1 RNA 1
# RNA 2: B1 RNA 2 with G34A, A43G, A45U, G49C
# B5: target 3 C1G,G3C (mixed)
# RNA 1: B1 RNA 1
# RNA 2: B1 RNA 2 with G34A, A45U, G49C, C51G
# B6: target 3 G3U,U7C (mixed)
# RNA 1: B1 RNA 1
# RNA 2: B1 RNA 2 with G34A, A45C, G49U
# B7: target 3 insA 3' of 2,insG 3' of 1 (mixed)
# RNA 1: B1 RNA 1
# RNA 2: GGGAAUGGAUCCACAUCUACGAAUUCGUUUUUGAUCUGAAAUAUUCAGGUACGUGCAGAUCGGAAGAGCACACGU
# B8: target 3 insC 3' of 7,insA 3' of 7 (mixed)
# RNA 1: B1 RNA 1
# RNA 2: B7 RNA 2 with G48C, G49A, U50G, A51G, C52U, G53C
# B9: target 3 C6U,A12C (mixed)
# RNA 1: B1 RNA 1
# RNA 2: B1 RNA 2 with G34A, A40C, A45U, C46U
# B10: target 3 C1G,A9U (mixed)
# RNA 1: B1 RNA 1
# RNA 2: B1 RNA 2 with G34A, A43U, A45U, C51G
# B11: target 3 U2A,U22G (mixed)
# RNA 1: B1 RNA 1
# RNA 2: B1 RNA 2 with U30G, G34A, A45U, U50A
# B12: target 3 G3C,U7A (mixed)
# RNA 1: B1 RNA 1
# RNA 2: B1 RNA 2 with G34A, G49C
# B13: target 3 insU 3' of 22,insG 3' of 1 (mixed)
# RNA 1: B1 RNA 1
# RNA 2: GGGAAUGGAUCCACAUCUACGAAUUCGUUUUUUGAUCUGAAAUAUUCAGGUCGUGCAGAUCGGAAGAGCACACGU
# B14: target 3 C1A,G3C (mixed)
# RNA 1: B1 RNA 1
# RNA 2: B1 RNA 2 with G34A, A45U, G49C, C51A
# B15: target 3 insC 3' of 9,insU 3' of 3 (mixed)
# RNA 1: B1 RNA 1
# RNA 2: B7 RNA 2 with U44C, C46U, A47C, G48A, U50G, A51U, C52U, G53C
# B16: target 3 del1,del15 (mixed)
# RNA 1: B1 RNA 1
# RNA 2: GGGAAUGGAUCCACAUCUACGAAUUCGUUUUUGAUCGAAAUAUUCAGGUUGCAGAUCGGAAGAGCACACGU
# B17: target 3 insA 3' of 22,insU 3' of 11 (mixed)
# RNA 1: B1 RNA 1
# RNA 2: B13 RNA 2 with U31A, A44U, U45A, C47U, A48C, G49A, U51G, C52U, G53C
# B18: target 3 U2A,U7C (mixed)
# RNA 1: B1 RNA 1
# RNA 2: B1 RNA 2 with G34A, A45C, U50A
# B19: target 3 G3C (mixed)
# RNA 1: B1 RNA 1
# RNA 2: B1 RNA 2 with G34A, A45U, G49C
# B20: target 3 insC 3' of 11,insG 3' of 7 (mixed)
# RNA 1: B1 RNA 1
# RNA 2: GGGAAUGGAUCCACAUCUACGAAUUCGUUUUUGAUCUGAAACUAUUGCAGGUCUGCAGAUCGGAAGAGCACACGU
# B21: target 3 insA 3' of 7,insG 3' of 7 (mixed)
# RNA 1: B1 RNA 1
# RNA 2: B20 RNA 2 with C42U, U43A, A44U, U46A
# B22: target 3 insC 3' of 22,insA 3' of 3 (mixed)
# RNA 1: B1 RNA 1
# RNA 2: B13 RNA 2 with U31C, U51A, C52U, G53C
# B23: target 3 C1A,U2C (mixed)
# RNA 1: B1 RNA 1
# RNA 2: B1 RNA 2 with G34A, A45U, U50C, C51A
# B24: target 3 insU 3' of 9,insA 3' of 7 (mixed)
# RNA 1: B1 RNA 1
# RNA 2: B20 RNA 2 with C42U, U43A, A44U, G47A
# B25: target 3 insU 3' of 9,insA 3' of 6 (mixed)
# RNA 1: B1 RNA 1
# RNA 2: B20 RNA 2 with C42U, U43A, A44U, G47C, C48A
# B26: target 3 C1G,C6U (mixed)
# RNA 1: B1 RNA 1
# RNA 2: B1 RNA 2 with G34A, A45U, C46U, C51G
# B27: target 3 A9U (mixed)
# RNA 1: B1 RNA 1
# RNA 2: B1 RNA 2 with G34A, A43U, A45U
# B28: target 3 insA 3' of 2,insU 3' of 1 (mixed)
# RNA 1: B1 RNA 1
# RNA 2: B7 RNA 2 with G53U
# B29: target 3 U20A,U21G (mixed)
# RNA 1: B1 RNA 1
# RNA 2: B1 RNA 2 with U31G, U32A, G34A, A45U
# B30: target 3 A18U,U22A (mixed)
# RNA 1: B1 RNA 1
# RNA 2: B1 RNA 2 with U30A, G34U, A45U
# B31: target 1 U8A,C22A (mixed)
# RNA 1: CACCCGUGCAAAAAUGCAGGGGUCUAAAACUGAGCGGAUAACCUCUCUAUGG
# RNA 2: GGGAAUGGAUCCACAUCUACGAAUUCGUAACAUAGAGAGGUUAACCGCUCACCGAGAUCGGAAGAGCACACGU
# B32: target 1 G5C,G15U (mixed)
# RNA 1: B31 RNA 1
# RNA 2: B31 RNA 2 with A30C, G37U, A44U, G47C
# B33: target 1 insG 3' of 21,insA 3' of 3 (mixed)
# RNA 1: B31 RNA 1
# RNA 2: GGGAAUGGAUCCACAUCUACGAAUUCGUACCGAUAGAGAGGUUAUCCGCUACACCGAGAUCGGAAGAGCACACGU
# Molecular target: T1, EsCas13d, nuclease-dead
# Experiment: crRNA (strand 1, pre-loaded); Mg2+; 40 mM Tris-HCl pH 7.5, 150 mM NaCl, 6 mM MgCl2, 1 mM DTT, 0.1% Tween-20, 0.2 mg/ml BSA; 25 C; 10 min per concentration, then washed
# Settings: tags: His6-TwinStrep-SUMO cleaved; N-terminal SNAP kept (SNAP-Surface 488); label: 3' end held by stalled T7 RNA polymerase
row,Binder,Kd
1,B1,49 ± 6 nM
2,B2,2.01 ± 0.17 nM
3,B3,54 ± 18.5 nM
4,B4,55.5 ± 5.5 nM
5,B5,26.5 ± 5 nM
6,B6,86 ± 36 nM
7,B7,36 ± 9 nM
8,B8,11 ± 1.4 nM
9,B9,72 ± 12.5 nM
10,B10,100 ± 40 nM
11,B11,65.5 ± 11.5 nM
12,B12,32.9 ± 3.6 nM
13,B13,32.5 ± 5.5 nM
14,B14,65.5 ± 29.5 nM
15,B15,114 ± 29 nM
16,B16,62 ± 18 nM
17,B17,72.5 ± 15.5 nM

row,Binder,Kd
1,B18,38 ± 13 nM
2,B19,19.9 ± 1.35 nM
3,B20,49 ± 11.5 nM
4,B21,30.4 ± 3.7 nM
5,B22,65.5 ± 14 nM
6,B23,18.6 ± 3.7 nM
7,B24,51 ± 10.5 nM
8,B25,85 ± 40 nM
9,B26,22.1 ± 2.55 nM
10,B27,~120 nM
11,B28,85.5 ± 20.5 nM
12,B29,98 ± 39.5 nM
13,B30,97.5 ± 30.5 nM
14,B31,31.1 ± 2.2 nM
15,B32,28.6 ± 2.4 nM
16,B33,54 ± 12 nM
